Target: recombinant human renin (human) (UniProt P00797)
Chain of UniProt P00797 (P00797 67-406): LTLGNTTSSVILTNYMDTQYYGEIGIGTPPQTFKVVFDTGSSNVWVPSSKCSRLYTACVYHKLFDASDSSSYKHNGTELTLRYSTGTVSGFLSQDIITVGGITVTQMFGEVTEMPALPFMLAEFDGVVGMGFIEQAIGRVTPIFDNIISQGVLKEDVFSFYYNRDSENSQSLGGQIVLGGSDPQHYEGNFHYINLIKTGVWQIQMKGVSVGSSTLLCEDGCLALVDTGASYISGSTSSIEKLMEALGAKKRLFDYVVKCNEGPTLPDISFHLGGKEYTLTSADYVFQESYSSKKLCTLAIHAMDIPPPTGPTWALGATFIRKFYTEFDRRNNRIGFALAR

Km (steady-state kinetics of human renin, 25 pM, with 0-0.4 μM oANG at 37 °C, pH 7.2; angiotensin I generated, measured by ELISA; Hanes-Woolf plot): 0.072 μM
Substance: recombinant ovine angiotensinogen expressed in CHO cells (natural protein)
